Broadly, the Kd is the equilibrium constant for the complex coming apart. The stoichiometry N is the number of molecules, sites or subunits per partner or assembly.

These results are taken from PMC3610751.

Data set [1] concerns NP isolated from virus (Influenza A virus (strain for filter assay not stated; A/PR/8/34 used for MS)). The data set can be described thus: filter binding. Particulars: running buffer with 300 mM NaCl and 0.025% P20, 25 C, conditions not given.
Data set [2] relates to wt NP, recombinant (filter binding) (Influenza A virus (A/WSN/33, H1N1)). In words: filter binding. Particulars: running buffer with 300 mM NaCl and 0.025% P20, 25 C, conditions not given.
The target of data set [3] is wild type nucleoprotein of influenza A virus H1N1 strain A/WSN/33 (influenza A virus H1N1 strain A/WSN/33). In words: crystal structure.

For the substance 81 nt panhandle RNA, the dissociation constant Kd in data set [1] and in data set [2] was 30 nM each time.

With “wild type nucleoprotein of influenza A virus H1N1 strain A/WSN/33 (natural protein)”, in data set [3], the stoichiometry N stood at 3.
